Laboratory results taken from patent US20240108766A1 (Bayer, published 2024).
Substitutions are numbered along the chain they refer to. Values belong to the binder of their own block, whether it stands above or below them.

Legend:
[1] = biological target: T1, human LRRC15 expressed on cells (human, UniProt Q8TF66 22-581); test: flow cytometry, transfected HEK293
T1 construct: whole, on cells; On HEK293 cells transfected with LRRC15/ZsGreen1 (Retrogenix), on HT29 cells transfected with human LRRC15, and endogenous on Saos-2; also called LRRC15/ZsGreen1 transfected HEK293 cells; HT29-LRRC15
T1 sequence (looked up): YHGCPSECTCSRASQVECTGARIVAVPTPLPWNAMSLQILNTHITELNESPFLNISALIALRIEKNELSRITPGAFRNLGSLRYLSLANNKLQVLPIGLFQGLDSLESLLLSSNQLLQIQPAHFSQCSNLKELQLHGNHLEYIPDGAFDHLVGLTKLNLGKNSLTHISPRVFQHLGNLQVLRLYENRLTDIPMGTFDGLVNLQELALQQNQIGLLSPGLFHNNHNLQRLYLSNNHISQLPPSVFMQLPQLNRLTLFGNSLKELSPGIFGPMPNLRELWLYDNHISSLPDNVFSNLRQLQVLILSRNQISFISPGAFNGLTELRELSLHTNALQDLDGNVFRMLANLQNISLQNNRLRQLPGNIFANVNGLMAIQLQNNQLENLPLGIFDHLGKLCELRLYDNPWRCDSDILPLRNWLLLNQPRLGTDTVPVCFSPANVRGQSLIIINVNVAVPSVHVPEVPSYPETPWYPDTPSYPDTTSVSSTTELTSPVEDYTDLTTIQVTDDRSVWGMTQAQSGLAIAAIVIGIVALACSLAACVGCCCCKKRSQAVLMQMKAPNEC

[2] = biological target: T2, Cathepsin S (CTSS) on transfected HEK293 cells (human, UniProt P25774 115-331); test: flow cytometry, live transfected HEK293 cells
T2 construct: whole, on cells; also called CTSS/ZsGreen1
T2 sequence (P25774 115-331): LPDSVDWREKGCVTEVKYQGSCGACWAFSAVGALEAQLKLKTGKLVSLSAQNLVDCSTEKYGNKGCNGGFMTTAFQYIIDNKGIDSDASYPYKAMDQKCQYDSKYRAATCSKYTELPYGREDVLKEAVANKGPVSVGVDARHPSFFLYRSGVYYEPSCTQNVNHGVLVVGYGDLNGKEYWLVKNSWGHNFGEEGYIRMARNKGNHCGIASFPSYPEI

[3] = biological target: T1, human LRRC15 expressed on cells; test: flow cytometry, transfected HEK293; remark: listed apart in the source
[4] = biological target: T1, human LRRC15 expressed on cells; test: flow cytometry, transfected HEK293; TPP-12942, first of the three values listed 'respectively'
[5] = biological target: T3, Ephrin type-B receptor 6 (EPHB6) on transfected HEK293 cells (human, UniProt O15197 32-1021); test: flow cytometry, transfected HEK293, 62.5 µg/ml
T3 construct: whole, on cells; also called EPHB6/ZsGreen1
T3 sequence (looked up): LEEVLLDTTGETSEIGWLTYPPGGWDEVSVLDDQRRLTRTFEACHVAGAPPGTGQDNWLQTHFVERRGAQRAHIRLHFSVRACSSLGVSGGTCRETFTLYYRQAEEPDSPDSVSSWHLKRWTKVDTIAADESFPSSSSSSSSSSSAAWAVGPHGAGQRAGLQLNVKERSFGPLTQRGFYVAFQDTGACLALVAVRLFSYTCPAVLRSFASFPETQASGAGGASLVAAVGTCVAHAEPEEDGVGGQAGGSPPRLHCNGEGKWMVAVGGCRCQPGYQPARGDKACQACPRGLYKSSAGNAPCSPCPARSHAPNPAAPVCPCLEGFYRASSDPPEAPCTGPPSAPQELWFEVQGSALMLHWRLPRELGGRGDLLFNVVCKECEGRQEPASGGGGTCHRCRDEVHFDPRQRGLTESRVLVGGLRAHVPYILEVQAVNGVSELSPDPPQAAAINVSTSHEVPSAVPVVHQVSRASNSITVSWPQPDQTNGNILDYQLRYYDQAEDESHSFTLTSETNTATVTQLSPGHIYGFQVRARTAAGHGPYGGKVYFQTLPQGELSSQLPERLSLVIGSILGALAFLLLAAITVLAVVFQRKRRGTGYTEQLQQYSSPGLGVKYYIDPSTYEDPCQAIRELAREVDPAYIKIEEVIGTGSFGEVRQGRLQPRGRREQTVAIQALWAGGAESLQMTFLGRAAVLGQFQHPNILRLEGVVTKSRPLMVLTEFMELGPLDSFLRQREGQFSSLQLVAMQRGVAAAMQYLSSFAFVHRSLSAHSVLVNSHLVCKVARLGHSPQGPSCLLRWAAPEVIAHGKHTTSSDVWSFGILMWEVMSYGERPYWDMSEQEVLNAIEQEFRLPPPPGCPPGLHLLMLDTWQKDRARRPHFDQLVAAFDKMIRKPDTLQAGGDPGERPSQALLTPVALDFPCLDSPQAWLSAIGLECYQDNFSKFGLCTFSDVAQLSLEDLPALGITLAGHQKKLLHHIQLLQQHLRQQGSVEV

[6] = biological target: T3, Ephrin type-B receptor 6 (EPHB6) on …; test: flow cytometry, transfected HEK293, 0 µg/ml
[7] = biological target: T3, Ephrin type-B receptor 6 (EPHB6) on …; test: flow cytometry, transfected HEK293, 2.5 µg/ml
[8] = biological target: T3, Ephrin type-B receptor 6 (EPHB6) on …; test: flow cytometry, transfected HEK293, 0.004 µg/ml
[9] = biological target: T3, Ephrin type-B receptor 6 (EPHB6) on …; test: flow cytometry, transfected HEK293, 12.5 µg/ml
[10] = biological target: T3, Ephrin type-B receptor 6 (EPHB6) on …; test: flow cytometry, transfected HEK293, 0.5 µg/ml
[11] = biological target: T3, Ephrin type-B receptor 6 (EPHB6) on …; test: flow cytometry, transfected HEK293, 0.1 µg/ml
[12] = biological target: T1, human LRRC15 expressed on cells; test: flow cytometry, transfected HEK293; TPP-17078, second of the three values listed 'respectively'
[13] = biological target: T1, human LRRC15 expressed on cells; test: flow cytometry, transfected HEK293; remark: listed apart in the source
[14] = biological target: T3, Ephrin type-B receptor 6 (EPHB6) on …; test: flow cytometry, live transfected HEK293 cells

EC50 [1]: 0.26 µg/mL
binding result [2]: no binding (tested: up to 62.5 µg/ml)
B1: TPP-14389 (antibody, human IgG1, kappa, V domains shown)
VH: EVQLLESGGGLVQPGGSLRLSCAASGFTFSGYMMSWVRQAPGKGLEWVSGIYPSPGYTYYADSVKGRFTISRDNSKNTLYLQMNSLRAEDTAVYYCAREKASDLFGSYSEALDYWGQGTLVTVSS
VL: DIQMTQSPDSLSASVGDRVTITCRASQDVGSWLAWYQQKPGKAPKLLIFAASSLESGIPSRFSGSGSGTDFTLTISSLQPEDFATYYCQQANGFPLTFGGGTKVEIKR
notes: also called 13612-rec02-hIgG1Kappa

EC50 [3]: 1.4 µg/mL
EC50 [4]: 0.2 µg/mL
B2: TPP-12942 (antibody, human IgG1, kappa, V domains shown)
VH: EVQLVQSGAEVKKPGASVKVSCKASGYKFSSYWIEWVKQAPGQGLEWIGEILPGSDTTNYNEKFKDRATFTSDTSINTAYMELSRLRSDDTAVYYCARDRGNYRAWFGYWGQGTLVTVSS
VL: DIQMTQSPSSLSASVGDRVTITCRASQDISNYLNWYQQKPGGAVKFLIYYTSRLHSGVPSRFSGSGSGTDYTLTISSLQPEDFATYFCQQGEALPWTFGGGTKVEIKR
notes: Prior art humanized IgG1 kappa antibody, used as comparator; also called huM25; huM25-hIgG1Kappa

Median Fluorescence AF647 [5]: 14600
Median Fluorescence AF647 [6]: 633
Median Fluorescence AF647 [7]: 5480
Median Fluorescence AF647 [8]: 1780
Median Fluorescence AF647 [9]: 7970
Median Fluorescence AF647 [10]: 3680
Median Fluorescence AF647 [11]: 3190
EC50 [12]: 0.15 µg/mL
B3: TPP-17078 (antibody, human IgG1, kappa, V domains shown)
VH: B2 VH
VL: B2 VL with D28S, N31S, V44P, T51A, R53S, H55Q, F87Y, E92F, A93S
notes: also called 438H-M308-H05-hIgGkappa

Median Fluorescence AF647 [5]: 9050
Median Fluorescence AF647 [6]: 628
Median Fluorescence AF647 [7]: 4150
EC50 [13]: 0.42 µg/mL
Median Fluorescence AF647 [8]: 1250
Median Fluorescence AF647 [9]: 5390
Median Fluorescence AF647 [10]: 3150
binding result [14]: no binding (tested: up to 62.5 µg/ml)
Median Fluorescence AF647 [11]: 2810
B4: TPP-17421 (antibody, human IgG1, kappa, V domains shown)
VH: B2 VH with T57W, G108Q
VL: B2 VL with D28S, N31S, V44P, T51A, R53S, H55Q, F87Y, E92L, A93E
notes: also called 438H-M306-C11-hIgG1Kappa
